Test results taken from patent publication US20250263470A1.
Where a chain is given by its changes, count along the chain named.

B1: FBC-39 (antibody, V domains shown)
VH: EVQLVVSGGGLVKPGGSLRLSCAASGLSFLNAWMSWVRQAPGKGLEWVGRIKSNTDGGTTDYAAPVKGRFSISRDDSKNMLFLHMSSLRTEDTAVYYCATDGPYSDDFRSGYAARYRYFGMDVWGQGTTVTVSS
VL: DIQMTQSPSSVSASVGDRVTITCRASQDISTWLAWYQQKPGKAPKLLIYAASSLQSGVPSRFSGSGSGTDFTLTISSLQPEDFATYFCQQANSFPPTFGQGTKLEIK
B2: FBC-39 LSL (antibody, V domains shown)
VH: B1 VH with V6E, S71T, M80T, F82Y, H84Q, R89K, A99T
VL: B1 VL with F87Y
B3: FBC-39 LTL (antibody, V domains shown)
VH: B1 VH with V6E, S28T, S71T, M80T, F82Y, H84Q, R89K, A99T
VL: B1 VL with F87Y
B4: FBC-39 FTL (antibody, V domains shown)
VH: B1 VH with V6E, L27F, S28T, S71T, M80T, F82Y, H84Q, R89K, A99T
VL: B1 VL with F87Y
B5: FBC-39 FSL (antibody, V domains shown)
VH: B1 VH with V6E, L27F, S71T, M80T, F82Y, H84Q, R89K, A99T
VL: B1 VL with F87Y
B6: FBC-39 FSS (antibody, V domains shown)
VH: B1 VH with V6E, L27F, L30S, S71T, M80T, F82Y, H84Q, R89K, A99T
VL: B1 VL with F87Y
B7: FBC-39 LTS (antibody, V domains shown)
VH: B1 VH with V6E, S28T, L30S, S71T, M80T, F82Y, H84Q, R89K, A99T
VL: B1 VL with F87Y
B8: FBD-56 (antibody, V domains shown)
VH: EVQLVESGGHLVQPGRSLRLSCAASGFTFEDYAMNWVRQAPGKGLEWVSVISWDSGRIGYADSVKGRFTISRDNAKNSSYLQMNSLRPEDTALYYCVRDMLAYYSDNSGKKYNVYGMDVWGQGTTVTVSS
VL: EIVLTQSPATLSLSPGERATLSCRASQSVSTFLAWYQQKPGQAPRLLMYDASNRATGIPARFSGSGSGTDFTLTISSLEPEDFAIYYCQQRSHWPPIFGQGTRLEIK
B9: FBD-94 (antibody, V domains shown)
VH: EVQLVESGGGLVQPGRSLRLSCAVSGFIFEDYAINWVRQAPGKGLEWVSIISWDSGRIGYADSVRGRFTISRDNAKNSSFLQMNSLRPEDTAVYYCVKDMLAYYYDGSGIRYNLYGMDVWGQGTTVTVSS
VL: B8 VL with Q27R, V29I, S30T, M48I, I58V, S76N, E81D, S92D

target: recombinant HA derived from influenza A subtype H9 (A/chicken/HK/G9/97 (H9N2)) (influenza A virus A/chicken/Hong Kong/G9/97 (H9N2)); assay: ELISA on coated recombinant H9 HA

Binder	EC50 [µg/mL]
B1	6.2
B2	41.7
B3	6.3
B4	46.1

target: recombinant HA derived from Victoria lineage strain B/BNE/08 (B/Brisbane/60/2008) (influenza B virus B/Brisbane/60/2008); assay: ELISA on coated recombinant HA, unpurified IgG

Binder	EC50 [µg/mL]
B1	0.186
B2	0.152
B5	0.273
B3	0.114
B4	0.118
B6	> 1
B7	> 1

target: recombinant HA derived from Yamagata lineage strain B/FLA/06 (B/Florida/4/2006) (influenza B virus B/Florida/4/2006); assay: ELISA on coated recombinant HA, unpurified IgG

Binder	EC50 [µg/mL]
B1	0.022
B2	0.021
B5	0.014
B3	0.017
B4	0.017
B6	0.019
B7	0.013

target: HA of influenza B virus B/Malaysia/2506/2004 (victoria) (influenza B virus B/Malaysia/2506/2004); assay: cell-based or functional assay

Binder	Neutralization (Ave IC50 ug/ml) [µg/mL]	Hemagglutination Inhibition Titer [nM]
B8	0.058	–
B9	0.023	10
B1	0.079	20
B2	0.094	–
B5	0.076	–
B3	0.076	–
B4	0.074	–

target: HA of influenza B virus ca B/Victoria/504/2000 (yamagata) (influenza B virus B/Victoria/504/2000); assay: cell-based or functional assay

Binder	Hemagglutination Inhibition Titer [nM]
B9	8
B1	16

target: HA of influenza B virus ca B/Ann Arbor/1/66 (influenza B virus B/Ann Arbor/1/66); assay: cell-based or functional assay

Binder	Neutralization (Ave IC50 ug/ml) [µg/mL]	Hemagglutination Inhibition Titer [nM]
B8	0.035	–
B9	0.014	10
B1	0.061	6
B2	0.027	–
B5	0.034	–
B3	0.023	–
B4	0.026	–

target: HA of influenza B virus ca B/Ann Arbor/2/94 (yamagata) (influenza B virus B/Ann Arbor/2/94); assay: cell-based or functional assay

Binder	Neutralization (Ave IC50 ug/ml) [µg/mL]	Hemagglutination Inhibition Titer [nM]
B8	1.25	–
B9	0.891	5
B1	0.027	6
B2	0.033	–
B5	0.023	–
B3	0.023	–
B4	0.023	–

target: HA of influenza B virus B/Hong Kong/330/2001 (victoria) (influenza B virus B/Hong Kong/330/2001); assay: cell-based or functional assay

Binder	Neutralization (Ave IC50 ug/ml) [µg/mL]	Hemagglutination Inhibition Titer [nM]
B8	0.038	–
B9	0.021	10
B1	0.142	16
B2	0.172	–
B5	0.132	–
B3	0.084	–
B4	0.121	–

target: HA of influenza B virus B/Ohio/1/2005 (victoria) (influenza B virus B/Ohio/1/2005); assay: cell-based or functional assay

Binder	Hemagglutination Inhibition Titer [nM]
B9	10
B1	24

target: HA of influenza B virus B/Shanghai/361/02 (yamagata) (influenza B virus B/Shanghai/361/02); assay: cell-based or functional assay

Binder	Hemagglutination Inhibition Titer [nM]
B9	0
B1	16

target: HA of influenza B virus B/Hong Kong/5/72 (influenza B virus B/Hong Kong/5/72); assay: cell-based or functional assay

Binder	Neutralization (Ave IC50 ug/ml) [µg/mL]	Hemagglutination Inhibition Titer [nM]
B8	0.051	–
B9	0.017	3
B1	0.026	8
B2	0.019	–
B5	0.019	–
B3	0.018	–
B4	0.022	–

target: HA of influenza B virus ca B/Brisbane/60/2008 (victoria) (influenza B virus B/Brisbane/60/2008); assay: cell-based or functional assay

Binder	Neutralization (Ave IC50 ug/ml) [µg/mL]	Hemagglutination Inhibition Titer [nM]
B8	0.01	–
B9	0.006	4
B1	0.238	20
B2	0.1	–
B5	0.08	–
B3	0.151	–
B4	0.098	–

target: HA of influenza B virus ca B/Yamanashi/166/98 (yamagata) (influenza B virus B/Yamanashi/166/98); assay: cell-based or functional assay

Binder	Neutralization (Ave IC50 ug/ml) [µg/mL]	Hemagglutination Inhibition Titer [nM]
B8	0.133	–
B9	0.012	10
B1	0.039	13
B2	0.014	–
B5	0.009	–
B3	0.01	–
B4	0.007	–

target: HA of influenza B virus ca B/Johannesburg/5/99 (yamagata) (influenza B virus B/Johannesburg/5/99); assay: cell-based or functional assay

Binder	Neutralization (Ave IC50 ug/ml) [µg/mL]	Hemagglutination Inhibition Titer [nM]
B8	0.021	–
B9	0.012	10
B1	0.304	18

target: HA of influenza B virus B/Sichuan/379/99 (yamagata) (influenza B virus B/Sichuan/379/99); assay: cell-based or functional assay

Binder	Hemagglutination Inhibition Titer [nM]	Neutralization (Ave IC50 ug/ml) [µg/mL]
B9	5	–
B1	10	0.034
B2	–	0.026
B5	–	0.022
B3	–	0.023
B4	–	0.023

target: HA of influenza B virus ca B/Georgia/02/98 (yamagata) (influenza B virus B/Georgia/02/98); assay: cell-based or functional assay

Binder	Hemagglutination Inhibition Titer [nM]
B9	8
B1	16

target: HA of influenza B virus B/Yamagata/16/88 (yamagata) (influenza B virus B/Yamagata/16/88); assay: cell-based or functional assay

Binder	Hemagglutination Inhibition Titer [nM]
B9	250
B1	11

target: HA of influenza B virus B/Lee/40 (influenza B virus B/Lee/40) (UniProt P03460); assay: cell-based or functional assay

Binder	Neutralization (Ave IC50 ug/ml) [µg/mL]	Hemagglutination Inhibition Titer [nM]
B8	0.004	–
B9	0.009	1
B1	0.021	5
B2	0.014	–
B5	0.011	–
B3	0.01	–
B4	0.013	–

target: HA of influenza B virus ca B/Beijing/243/97 (victoria) (influenza B virus B/Beijing/243/97); assay: cell-based or functional assay

Binder	Neutralization (Ave IC50 ug/ml) [µg/mL]	Hemagglutination Inhibition Titer [nM]
B8	0.016	–
B9	0.005	10
B1	0.218	14
B2	0.182	–
B5	0.195	–
B3	0.152	–
B4	0.134	–

target: recombinant HA derived from Victoria lineage strain B/BNE/08 (B/Brisbane/60/2008) (influenza B virus B/Brisbane/60/2008); assay: ELISA on coated recombinant HA, average of three experiments

Binder	EC50 [µg/mL]
B8	0.03
B9	0.016
B1	0.048

target: recombinant HA derived from Yamagata lineage strain B/FLA/06 (B/Florida/4/2006) (influenza B virus B/Florida/4/2006); assay: as above

Binder	EC50 [µg/mL]
B8	0.024
B9	0.013
B1	0.02
